B1: Acidithiobacillus ferrooxidans CbbQ1 (natural protein, UniProt B7JA26 1-267, looked up)
chain: MNDQLTEYRIKKAPYYRATGDETELYEAAYSVRMPMMLKGPTGCGKTRFVEYMAYKLGKPLITVACNEDMTASDLVGRFLLDPQGTRWQDGPLTLAARLGAICYLDEVVEARQDTTVVIHPLTDNRRVLPLEKKGELVQAHPDFQLVISYNPGYQSLMKDLKQSTKQRFGALDFNYPDHEIEAEIVSHETGVNKEVADKLVSIAERARNLKGHGLDEGISTRMLVYAGSLINKGVEAKAACRVTLVRPITDDPDMRDALDAAVTTYF
notes: MoxR-type AAA+ protein CbbQ1 of Acidithiobacillus ferrooxidans ATCC 23270, locus AFE_3053; native N terminus after cleavage of His6-ubiquitin; six copies in the Q1O1 complex; alone it eluted in the void volume (likely soluble aggregates); also called AfQ1; AfCbbQ1; source: E. coli, co-expressed with CbbO1, co-purified (Ni-NTA, ubiquitin cleaved, MonoQ, Superdex 200); not shown: His6, N-terminal, …
B2: Acidithiobacillus ferrooxidans CbbQ2 (natural protein, UniProt B7J5E4 1-272, looked up)
chain: MTATDSSILNQYLVGKEPFYQPQHDEVALFEAAYRKRLPVMVKGPTGCGKSRFVEFMAWRLGKPLVTVACNEDMTAADLVGRWLLDKDGTRWQDGPLTVAARYGAICYLDEIVEARQDTTVVIHPLTDHRRTLPLDKKGELIRAHPDFQLVISYNPGYQSLMKDLKQSTKQRFTGFEFDYPNAELEAGILVQETGVAPSIAAQLVTVAATARRLKGHGLDEGISTRLLVYAAMLMDDGVAPRAACRMALVQPITDDADIRATLEHAIDMTFA
notes: MoxR-type AAA+ protein CbbQ2 of Acidithiobacillus ferrooxidans ATCC 23270, locus AFE_2156; native N terminus after cleavage of His6-ubiquitin; also called AfQ2; AfCbbQ2; not shown: His6, N-terminal, cleaved; ubiquitin, N-terminal, cleaved
B3: Rhodobacter sphaeroides form I rubisco large subunit (natural protein, UniProt P27997 1-486, looked up)
chain: MDTKTTEIKGKERYKAGVLKYAQMGYWDGDYVPKDTDVLALFRITPQEGVDPVEAAAAVAGESSTATWTVVWTDRLTACDSYRAKAYRVEPVPGTPGQYFCYVAYDLILFEEGSIANLTASIIGNVFSFKPLKAARLEDMRFPVAYVKTYKGPPTGIVGERERLDKFGKPLLGATTKPKLGLSGKNYGRVVYEGLKGGLDFMKDDENINSQPFMHWRDRFLYVMEAVNLASAQTGEVKGHYLNITAGTMEEMYRRAEFAKSLGSVIVMVDLIIGYTAIQSISEWCRQNDMILHMHRAGHGTYTRQKNHGISFRVIAKWLRLAGVDHLHCGTAVGKLEGDPLTVQGYYNVCREPFNTVDLPRGIFFEQDWADLRKVMPVASGGIHAGQMHQLLSLFGDDVVLQFGGGTIGHPMGIQAGATANRVALEAMVLARNEGRNIDVEGPEILRAAAKWCKPLEAALDTWGNITFNYTSTDTSDFVPTASVAM
notes: form I rubisco large subunit of Rhodobacter sphaeroides; also called large subunit of RsLS

What was measured:
[1] = target: the molecule itself; assay: SEC + other: glycerol gradient sedimentation; combined Stokes radius/sedimentation analysis: Stokes radius from gel filtration, Svedberg coefficient from 5–30% glycerol gradients in buffer A (1 mg/ml, 35,000 r.p.m., 16 h, 4 °C); M=4,205 (SRs)
[2] = target: B2; assay: as above; settings: both partners purified
[3] = target: B2; assay: quantitative densitometry of SDS-PAGE; Coomassie-stained SDS–PAGE of the purified complexes (4 µg per lane), assuming equal binding of the dye; settings: both partners purified
[4] = target: B1; assay: SEC + other: glycerol gradient sedimentation; combined Stokes radius/sedimentation analysis: Stokes radius from gel filtration, Svedberg coefficient from 5–30% glycerol gradients in buffer A (1 mg/ml, 35,000 r.p.m., 16 h, 4 °C); M=4,205 (SRs); settings: both partners purified
[5] = target: B1; assay: quantitative densitometry of SDS-PAGE; Coomassie-stained SDS–PAGE of the purified complexes (4 µg per lane), assuming equal binding of the dye; settings: both partners purified
[6] = target: B3; assay: SEC + other: glycerol gradient sedimentation; combined Stokes radius/sedimentation analysis: Stokes radius from gel filtration, Svedberg coefficient from 5–30% glycerol gradients in buffer A (1 mg/ml, 35,000 r.p.m., 16 h, 4 °C); M=4,205 (SRs); settings: both partners purified

Binder	stoichiometry N [1]	further results
Rhodopseudomonas palustris form II rubisco (enzyme, UniProt Q6N0W9 1-461, looked up, form II rubisco (CbbM) of Rhodopseudomonas palustris; gene synthesized by Genscript, cloned in pHue; also called RpM; source: E. coli BL21 (DE3), purified (Ni-NTA, ubiquitin cleaved, Mono Q, Superdex 200); not shown: His6, N-terminal, cleaved; ubiquitin, N-terminal, cleaved) MDQSNRYANLNLKESELIAGGRHVLCAYIMKPKAGFGNFIQTAAHFAAESSTGTNVEVSTTDDFTRGVDALVYEVDEANSLMKIAYPIELFDRNVIDGRAMIASFLTLTIGNNQGMGDVEYAKMYDFYVPPAYLKLFDGPSTTIKDLWRVLGRPVINGGFIVGTIIKPKLGLRPQPFANACYDFWLGGDFIKNDEPQGNQVFAPFKDTVRAVADAMRRAQDKTGEAKLFSFNITADDHYEMLARGEFILETFADNADHIAFLVDGYVAGPAAVTTARRAFPKQYLHYHRAGHGAVTSPQSKRGYTAFVLSKMARLQGASGIHTGTMGFGKMEGEAADRAIAYMITEDAADGPYFHQEWLGMNPTTPIISGGMNALRMPGFFDNLGHSNLIMTAGGGAFGHVDGGAAGAKSLRQAEQCWKQGADPVEFAKDHREFARAFESFPQDADKLYPNWRAKLKPQAA	6 subunits in the oligomer	
B1	6 CbbQ subunits in the complex	
Acidithiobacillus ferrooxidans CbbO2 (natural protein, UniProt B7J5E5 1-759, looked up, VWA-domain protein CbbO2 of Acidithiobacillus ferrooxidans ATCC 23270, locus AFE_2157; insoluble unless co-expressed with CbbQ2; also called AfCbbO2; source: E. coli, co-expressed with CbbQ2, co-purified (Ni-NTA, ubiquitin cleaved, MonoQ, Superdex 200; 5 mM MgCl2 and 5% glycerol in buffers); not shown: His6, N-terminal, cleaved; ubiquitin, N-terminal, cleaved) MTDHPRDASLPSRLAAYRKQLDCRFPRVGEVFSDCIAKASARLGPAGVSAYVDAARALCKLGRGEEPVLIFLEEWPDVGAALGDGTLEMVMQMVQFMQRTPNGNAIGGFLQSLAPVSRALLSREQLGHYLNTLRDMMERTTGSIHGHHQTHPSPGLPELLRQAPTLLQSLTVDGLRNWVDYGVRNYLHHPERQKDFFSLQSADSRAVLQRERHGTLLADVERKLDLYLRGLWQDSEVLVPYSTAFATLRTPQPYYDALGMRLPDVLDDLPGIGALDHYRAILAHMVGHRRWSTPQIADNWSPFQRLAVEFFEDARIDTLLIRTYPGLRTLFLALHPKPGEDACDPETTSCLRHRLAMLSRALLDPEHGYRNPVLHDFVDRFHGELAGGNADTATMARLALDYVTTTRRQSDQFAKVHFADTEISYRDDNRGLWRFIESGDEEEAFDAEQRKAPDLETQGLPPRHYPEWDYQSQSYRPDWVSLYEGLHASAPAATIDQLLLKHAALAKHLKRLLDLLKPQDKVRIRYQEEGSELDLDVALRSWIDFKSGSTPDPRINMSHRTAGRDIAVTLLLDLSESLNESVKTGGGDGQTVLQLSQEAVSLLAWSIEQLGDPLAIAGFNSNTRHEVRYQHIKGFSEPWGDVVKGRLAALQAGYSTRMGAAMRHAGHYLATRKADKKLMLVLTDGRPSDVDVQDDRLLIEDARQAVNELDRDGIFTYCISLDPHADAYVADIFGRQYTVIDHIARLPEKLPELFIALTR		stoichiometry N [2]: 1 CbbO subunit per CbbQ hexamer; stoichiometry N [3]: 1 CbbO subunit per 6 CbbQ subunits
Acidithiobacillus ferrooxidans form II rubisco (enzyme, UniProt B7J5E3 1-459, looked up, form II rubisco (CbbM) of Acidithiobacillus ferrooxidans ATCC 23270, locus AFE_2155; native N terminus after cleavage of His6-ubiquitin; used as ECM, ER and ECMC complexes in the enzymatic assays; also called AfM; CbbM; source: E. coli BL21 (DE3), purified (Ni-NTA, ubiquitin cleaved, Mono Q, Superdex 200); not shown: His6, N-terminal, cleaved; ubiquitin, N-terminal, cleaved) MDQSNRYADLSLKEEDLISGGKHILVAYKMKPKAGHGYLEAAAHFAAESSTGTNVEVSTTDDFTKGVDALVYHIDEATEDMRIAFPLELFDRNVTDGRMMIVSFLTLVIGNNQGMGDIEHGQMIDFFMPPRAIQLFDGPAKDISDLWRILGRPIKDGGYIAGTIIKPKLGLRPEPFAAAAYQFWLGGDFIKNDEPQGNQVFAPVKKTIPLVYDAMKRAMDETGEAKLFSMNITADDHYEMCARADFALETFGPDADKLAFLVDGFVGGPGMITTARRQYAGQYLHYHRAGHGMITSPSAKRGYTAFVLAKMSRLQGASGIHVGTMGYGKMEGGADDRNIAYMIERDSCDGPVYHQEWYGMKPTTPIISGGMNALRLPGFFENLGHGNVINTAGGGSYGHIDSPAAGAVSLRQAYECWKAGADPIEYAREHKEFARAFESFPGDADKLYPGWREKLGVHR	6 subunits in the oligomer	
Acidithiobacillus ferrooxidans form I rubisco large subunit (natural protein, UniProt B7JA24 1-473, looked up, form I rubisco large subunit (CbbL) of Acidithiobacillus ferrooxidans ATCC 23270, locus AFE_3051; gene amplified from genomic DNA; cbbL and cbbS were amplified together and cloned between NdeI and HindIII of pET30b; no tag is mentioned; also called AfL; CbbL; source: E. coli BL21, co-expressed with the small subunit from pET30bAfcbbLS, purified (Source30Q, Superdex 200)) MAVKTYNAGVKDYRNTYWEPDYSVKDTDILAVFKITPQAGVDREEAAAAVAAESSTGTWTTVWTDLLTDLDYYKGRAYRIEDVPGDDTCFYAFIAYPIDLFEEGSVVNVFTSLVGNVFGFKAVRALRLEDVRFPIAYVKTCGGPPHGIQVERDIMNKYGRPLLGCTIKPKLGLSAKNYGRACYEGLRGGLDFTKDDENVNSQPFMRWRQRFDFVMEAIQKAEAETGERKGHYLNVTAPTPEEMYKRAEYAKEIGAPIIMHDYITGGFCANTGLANWCRDNGMLLHIHRAMHAVLDRNPHHGIHFRVLTKILRLSGGDHLHSGTVVGKLEGDREATLGWIDIMRDRFIKEDRSRGIFFDQDWGSMPGVMPVASGGIHVWHMPALVTIFGDDSVLQFGGGTLGHPWGNAAGAAANRVALEACVEARNRGVAIEKEGKAVLTEAAKHSPELKIAMETWKEIKFEFDTVDKLDVAHK	8 large subunits in the complex	
Acidithiobacillus ferrooxidans CbbO1 (natural protein, UniProt B7JA27 1-772, looked up, VWA-domain protein CbbO1 of Acidithiobacillus ferrooxidans ATCC 23270, locus AFE_3054; insoluble unless co-expressed with CbbQ1; also called AfCbbO1; source: E. coli, co-expressed with CbbQ1, co-purified (Ni-NTA, ubiquitin cleaved, MonoQ, Superdex 200); not shown: His6, N-terminal, cleaved; ubiquitin, N-terminal, cleaved) MKHLEDYAELLQAFGEGSQAILQSKWQEATRVFSPSGLDQYLDGAMGLRSLGKGDGLVSSYLDAAPHIAREVGEDAVWELVGAVMKMASKTSGAVLEAVVSTSPTAANRLADPELFKSYLGMLDRLLAQVPRALRPMLENIDQLFGYLTLGGLRRWALWGAHAHRTDFEAQIAYFSLKSPEALAMLQQERKGTLFVDIQRRLRMYLRALWGRDFFLRPTSGDFEDREGYRPYIEGIFIHLPDAYDDWEDIDGMTRYRAVAVHAAAHVAYMRKAISAEALTPEQMAVIGLFEDARVEALAMRAFPGIRAIWLPFHTAVAGPVASMGHLFSRLARAIIDPDYVDDNAWVQEGRRVFMEAEARWDDPQLSWDLGVHLADRLRNQRVSYHARTDIPDILYRDDNRYIWEFEEIDWEHETTILPGAQVRKYVNVMEMVNEVDTELAGDDAQEVWVLQSELFPYEDMGLSYNQMEGKEPVSDPFHYPEWDYQIQASRPLWATVLERRPRLGDARVVREVLEKYKPVSSRLRYLIEALQPQGVQRLRKQEDGDEIDVEAAVRALVDIRMGLAPDTRIHMRSLRKVRDLGVLVLMDLSESTNDKVRGSEDSILQLTRDATSLLADAMNRIGDPFAIHGFHSDGRHDVAYYRFKDFDEAYSEEAMGRIAGMTGKFSTRMGAALRHAGHHLRHQRQSRKLLLVITDGEPADIDVRDPQYLRHDARRAVEDLGRDGVITYCLSLDPHADEYVSRIFGARNYQVIDHVERLPERLPILYAGLTR		stoichiometry N [4]: 1 CbbO subunit per CbbQ hexamer; stoichiometry N [5]: 1 CbbO subunit per 6 CbbQ subunits
B2	6 subunits in the oligomer	
Rhodobacter sphaeroides form I rubisco small subunit (natural protein, UniProt P27998 1-129, looked up, form I rubisco small subunit of Rhodobacter sphaeroides; also called small subunit of RsLS) MRITQGCFSFLPDLTDEQISAQVDYCLGRGWAVSLEHTDDPHPRNTYWEMWGMPMFDLRDPKGVMIELDECRKAWPGRYIRINAFDSTRGFETVTMSFIVNRPEVEPSLRMERTEVDGRSIRYTHSIVR		binding result [6]: binds
B3	8 large subunits in the complex	

From paper PMC4660213, “Identification and characterization of multiple rubisco activases in chemoautotrophic bacteria” (Nature Communications, 2015)
